In PMC2693498, “The triple combination of tenofovir, emtricitabine and efavirenz shows synergistic anti-HIV-1 activity in vitro: a mechanism of action study”:

What was measured:
[1] = target: T1, HIV-1 reverse transcriptase p66/p51, wild-type (HIV-1, UniProt P04585;P04585 588-1147;588-1027); assay: EMSA; EFV titrated (ligand Kd); Bmax 11.2%; DEC binding buffer not in the material; 6% non-denaturing PAGE; DEC defined as resistant to excess competitor template; primer/template annealed 1:1.3 in 50 mM; conditions: protein: recombinant; tags: N-terminal 6-His; copies: 1;1; label: 5'-32P primer; template 5' overhang 24 nt, other end blunt
[2] = target: T1, HIV-1 reverse transcriptase p66/p51, …; assay: EMSA; dCTP titrated (ligand Kd); Bmax 55.8%; DEC binding buffer not in the material; 6% non-denaturing PAGE; DEC defined as resistant to excess competitor template; primer/template annealed 1:1.3 in 50 mM; conditions: protein: recombinant; tags: N-terminal 6-His; copies: 1;1; label: 5'-32P primer; template 5' overhang 24 nt, other end blunt
[3] = target: T1, HIV-1 reverse transcriptase p66/p51, …; assay: EMSA; FTC-TP titrated (ligand Kd); Bmax 60.2%; DEC binding buffer not in the material; 6% non-denaturing PAGE; DEC defined as resistant to excess competitor template; primer/template annealed 1:1.3 in 50 mM; conditions: protein: recombinant; tags: N-terminal 6-His; copies: 1;1; label: 5'-32P primer; template 5' overhang 24 nt, other end blunt
[4] = target: T1, HIV-1 reverse transcriptase p66/p51, …; assay: EMSA; EFV titrated (ligand Kd); Bmax 10.6%; DEC binding buffer not in the material; 6% non-denaturing PAGE; DEC defined as resistant to excess competitor template; primer/template annealed 1:1.3 in 50 mM; conditions: protein: recombinant; tags: N-terminal 6-His; copies: 1;1; label: 5'-32P primer; template 5' overhang 23 nt, other end blunt
[5] = target: T1, HIV-1 reverse transcriptase p66/p51, …; assay: EMSA; dATP titrated (ligand Kd); Bmax 60%; DEC binding buffer not in the material; 6% non-denaturing PAGE; DEC defined as resistant to excess competitor template; primer/template annealed 1:1.3 in 50 mM; conditions: protein: recombinant; tags: N-terminal 6-His; copies: 1;1; label: 5'-32P primer; template 5' overhang 23 nt, other end blunt
[6] = target: T1, HIV-1 reverse transcriptase p66/p51, …; assay: EMSA; TFV-DP titrated (ligand Kd); Bmax 55%; DEC binding buffer not in the material; 6% non-denaturing PAGE; DEC defined as resistant to excess competitor template; primer/template annealed 1:1.3 in 50 mM; conditions: protein: recombinant; tags: N-terminal 6-His; copies: 1;1; label: 5'-32P primer; template 5' overhang 23 nt, other end blunt
[7] = target: T1, HIV-1 reverse transcriptase p66/p51, …; assay: EMSA; EFV titrated (ligand Kd); Bmax 3.96%; DEC binding buffer not in the material; 6% non-denaturing PAGE; DEC defined as resistant to excess competitor template; primer/template annealed 1:1.3 in 50 mM; conditions: protein: recombinant; tags: N-terminal 6-His; copies: 1;1; label: 5'-32P primer; template 5' overhang 23 nt, other end blunt
[8] = target: T1, HIV-1 reverse transcriptase p66/p51, …; assay: EMSA; dCTP titrated (ligand Kd); Bmax 50.0%; DEC binding buffer not in the material; 6% non-denaturing PAGE; DEC defined as resistant to excess competitor template; primer/template annealed 1:1.3 in 50 mM; conditions: protein: recombinant; tags: N-terminal 6-His; copies: 1;1; label: 5'-32P primer; template 5' overhang 24 nt, other end blunt
[9] = target: T1, HIV-1 reverse transcriptase p66/p51, …; assay: EMSA; FTC-TP titrated (ligand Kd); Bmax 50.0%; DEC binding buffer not in the material; 6% non-denaturing PAGE; DEC defined as resistant to excess competitor template; primer/template annealed 1:1.3 in 50 mM; conditions: protein: recombinant; tags: N-terminal 6-His; copies: 1;1; label: 5'-32P primer; template 5' overhang 24 nt, other end blunt
[10] = target: T1, HIV-1 reverse transcriptase p66/p51, …; assay: EMSA; EFV titrated (ligand Kd); Bmax 44.4%; DEC binding buffer not in the material; 6% non-denaturing PAGE; DEC defined as resistant to excess competitor template; primer/template annealed 1:1.3 in 50 mM; conditions: protein: recombinant; tags: N-terminal 6-His; copies: 1;1; label: 5'-32P primer; template 5' overhang 24 nt, other end blunt
[11] = target: T1, HIV-1 reverse transcriptase p66/p51, …; assay: EMSA; EFV titrated (ligand Kd); Bmax 5.53%; DEC binding buffer not in the material; 6% non-denaturing PAGE; DEC defined as resistant to excess competitor template; primer/template annealed 1:1.3 in 50 mM; conditions: protein: recombinant; tags: N-terminal 6-His; copies: 1;1; label: 5'-32P primer; template overhangs: 5' 8 nt, 3' 8 nt
[12] = target: T1, HIV-1 reverse transcriptase p66/p51, …; assay: EMSA; TFV-DP titrated (ligand Kd); Bmax 15.3%; DEC binding buffer not in the material; 6% non-denaturing PAGE; DEC defined as resistant to excess competitor template; primer/template annealed 1:1.3 in 50 mM; conditions: protein: recombinant; tags: N-terminal 6-His; copies: 1;1; label: 5'-32P primer; template overhangs: 5' 8 nt, 3' 8 nt
[13] = target: T1, HIV-1 reverse transcriptase p66/p51, …; assay: EMSA; dATP titrated (ligand Kd); Bmax 38.0%; DEC binding buffer not in the material; 6% non-denaturing PAGE; DEC defined as resistant to excess competitor template; primer/template annealed 1:1.3 in 50 mM; conditions: protein: recombinant; tags: N-terminal 6-His; copies: 1;1; label: 5'-32P primer; template overhangs: 5' 8 nt, 3' 8 nt
[14] = target: T1, HIV-1 reverse transcriptase p66/p51, …; assay: EMSA; EFV titrated (ligand Kd); Bmax 14.9%; DEC binding buffer not in the material; 6% non-denaturing PAGE; DEC defined as resistant to excess competitor template; primer/template annealed 1:1.3 in 50 mM; conditions: protein: recombinant; tags: N-terminal 6-His; copies: 1;1; label: 5'-32P primer; template overhangs: 5' 8 nt, 3' 8 nt

B1: D26/D50, ddAMP-terminated (dsDNA)
DNA 1: CTGAGACAACATCTGCTGAGGTAGGA
DNA 2: TGTCGTGTGGTGTCGTGTGGTATGTCCTACCTCAGCAGATGTTGTCTCAG
modifications: 3'-terminal A of primer is ddAMP
apparent K (half saturation) [1]: 2420 ± 1100 nM
apparent K (half saturation) [2]: 8.1 ± 2.1 µM
apparent K (half saturation) [3]: 86.8 ± 0.2 µM

B2: D27/D50, ddCMP-terminated (dsDNA)
DNA 1: CTGAGACAACATCTGCTGAGGTAGGAC
DNA 2: TGTCGTGTGGTGTCGTGTGGTATGTCCTACCTCAGCAGATGTTGTCTCAG
modifications: 3'-terminal C of primer is ddCMP
apparent K (half saturation) [4]: 110 ± 60 nM
apparent K (half saturation) [5]: 6.5 ± 2.6 µM
apparent K (half saturation) [6]: 140 ± 19 µM

B3: D27/D50, FTC-MP-terminated (dsDNA)
DNA 1: CTGAGACAACATCTGCTGAGGTAGGAC
DNA 2: TGTCGTGTGGTGTCGTGTGGTATGTCCTACCTCAGCAGATGTTGTCTCAG
modifications: 3'-terminal C of primer is emtricitabine-MP
apparent K (half saturation) [7]: 1260 ± 240 nM

B4: D26/D50, TFV-terminated (dsDNA)
DNA 1: CTGAGACAACATCTGCTGAGGTAGGA
DNA 2: TGTCGTGTGGTGTCGTGTGGTATGTCCTACCTCAGCAGATGTTGTCTCAG
modifications: 3'-terminal A of primer is tenofovir (chain terminator)
apparent K (half saturation) [8]: 179 ± 33 µM
apparent K (half saturation) [9]: 46.5 ± 7.8 µM
apparent K (half saturation) [10]: 1220 ± 280 nM

B5: D20/D36C, FTC-MP-terminated (dsDNA)
DNA 1: GTCCCTGTTCGGGCGCCACC
DNA 2: TCTCTAATGGTGGCGCCCGAACAGGGACCTGAAAGC
modifications: 3'-terminal C of primer is emtricitabine-MP
apparent K (half saturation) [11]: 1540 ± 330 nM

B6: D20/D36C, ddCMP-terminated (dsDNA)
DNA 1: GTCCCTGTTCGGGCGCCACC
DNA 2: TCTCTAATGGTGGCGCCCGAACAGGGACCTGAAAGC
modifications: 3'-terminal C of primer is ddCMP
apparent K (half saturation) [12]: 445 ± 114 µM
apparent K (half saturation) [13]: 16.9 ± 8.5 µM
apparent K (half saturation) [14]: 1030 ± 250 nM
